Where a chain is given by its changes, count along the chain named.
T1: Murine CD38 on transiently transfected Expi293 cells (Origene MC208001) (murine, UniProt P56528 1-304)
T1 construct: whole, on cells
T1 sequence (looked up): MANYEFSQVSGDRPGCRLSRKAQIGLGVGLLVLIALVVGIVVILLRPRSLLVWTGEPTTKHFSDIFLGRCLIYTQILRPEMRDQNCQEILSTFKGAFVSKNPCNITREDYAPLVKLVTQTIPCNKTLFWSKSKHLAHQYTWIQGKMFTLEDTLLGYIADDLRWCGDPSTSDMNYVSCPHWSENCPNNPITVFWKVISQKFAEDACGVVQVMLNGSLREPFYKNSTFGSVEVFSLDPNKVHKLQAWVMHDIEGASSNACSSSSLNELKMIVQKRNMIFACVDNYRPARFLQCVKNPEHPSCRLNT

T2: His-tagged mouse CD38 (ACRO Biosystems CD8-M5223) (mouse, UniProt P56528 45-304)
T2 construct: bought protein; used for ELISA coating and as SPR analyte; also called Murine; not shown: His tag
T2 sequence (looked up): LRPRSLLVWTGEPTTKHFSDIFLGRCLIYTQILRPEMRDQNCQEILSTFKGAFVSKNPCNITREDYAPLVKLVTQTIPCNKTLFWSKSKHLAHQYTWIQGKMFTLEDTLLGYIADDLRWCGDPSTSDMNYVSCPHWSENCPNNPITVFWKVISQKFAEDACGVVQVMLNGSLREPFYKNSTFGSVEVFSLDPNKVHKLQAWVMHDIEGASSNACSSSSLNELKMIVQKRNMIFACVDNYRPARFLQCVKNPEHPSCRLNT

B1: 40769p2.2.A5 scFv-Fc (scFv, V domains shown)
VH: EVQLLESGGGLIQPGGSLRLSCTASGFDFSSYGMHWVRQAPGKGLEWVGIISDTGGTTYYGDSVKGRFTISRDNSKSTLYLQMNSLRAEDTALYYCASYIMDVWGQGTTVTVSS
VL: QSVLTQPPSASGTPGQRVTISCSGSNSNVGDNAVYWYQQLPGTAPKLLFYGTNRRPSGVPDRFSGSKSGTSASLAISGLQSEDEADYYCAAWDDSLNAWVFGGGTKLTVL
notes: scFv-Fc
B2: 40769p2.2.D3 scFv-Fc (scFv, V domains shown)
VH: B1 VH with T54S, G61A, S77N, T108I
VL: B1 VL with D31V, A33S, F49I, T52S, N53G, G65V, D94G, S95G
notes: scFv-Fc
B3: 40769p2.2.A9 scFv-Fc (scFv, V domains shown)
VH: EVQLLESGGGLVQPGGSLRLSCTASGITFSRFNMFWVRQAPGKGLEFVASIRDDGSWTYYADSVKGQFTISRDNSKNTLYLQMNSLRAEDTAVYYCAKDYNSKDFIYHYVMDVWGQGTTVTVSS
VL: QSVLTQPPSASGTPGQRVTISCSGRNSNIGNNVVNWYQQLPGTAPKLLIYRNQERPSGVPDRFSGSKSGTSASLAISGLQSEDEADYYCSTWDDSLNGWVFGGGTKLTVL
notes: scFv-Fc
B4: 40769p1.2.B10 (scFv, V domains shown)
VH: EVQLLESGGGLVQPGGSLRLSCPASGFDFSSYWMTWVRQAPGKGLEWVSTITDSGGRAWYADSVRGRFTISRDNSKNTLYLQMNSLRAEDTAVYYCARDTPKTYYYYAMDVWGQGTTVTV
VL: QSALTQPPSASGTPGQRVTISCSGSSSNIQYSYVSWYQQLPGTAPKLLIYNNVQRPSGVPDRFSGSKSGTSASLAISGLQSEDEADYYCATWDESLLGLWVFGGGTKLTVL
B5: 40769p1.2.C9 (scFv, V domains shown)
VH: EVQLLESGGGLVQPGGSLRLSCAASGFTFSSHDMNWVRQAPGKGLEWVSTITTTGGTYYTDSVKGRFTISRDNSKNTIYLQMTSLRAEDTAVYYCTKHYSMDVWGQGTTVTVSS
VL: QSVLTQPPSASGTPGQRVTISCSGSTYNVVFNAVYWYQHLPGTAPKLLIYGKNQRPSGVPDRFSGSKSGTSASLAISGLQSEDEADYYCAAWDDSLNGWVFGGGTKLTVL
B6: 40769p1.1.B12 (scFv, V domains shown)
VH: B1 VH with T54S, G61A, S77N, L79M, T108I
VL: B1 VL with N26S, D31G, A33S, T52N, N53H, A91V
B7: 40769p1.1.B10 (scFv, V domains shown)
VH: B3 VH with Q67R
VL: B3 VL
B8: 40617p1.2.H1 (scFv, V domains shown)
VH: EVQLLESGGGLVQPGGSLRLSCAASGFTFTNYWMTWVRQAPGKGLEWVSAISSYGGNYMYYADSVKGRFTISRDNSENTLYLQMNSLRAEDTAVYYCAKDWDDGMDVWGQGTTVTVSS
VL: EIVMTQSPAVLSVSPGERATLSCRASQTVGSKLAWYQQKPGQAPRLLIYGVSTRAAGIPDRFSGSGSGTDFTLTISSLQSEDFAVYYCQQYYDLPPYSFGGGTKVEIK

target: T3, Human CD38 on transiently transfected Expi293 cells (Origene SC321273) (human, UniProt P28907 1-300); test: flow cytometry, 10 ug/ml scFv-Fc, transfected Expi293 cells
T3 construct: whole, on cells

Row | Binder | FACS percent gated [%]
1 | B1 | 90.5
2 | B2 | 83.5
3 | B3 | 91.2

target: T1, Murine CD38 on transiently transfected …; test: as above

Row | Binder | FACS percent gated [%]
4 | B1 | 35.5
5 | B2 | 13.1
6 | B3 | 1.57

target: T4, His-tagged human CD38 (ACRO Biosystems CD8-H5224) (human, UniProt P28907 43-300); test: SPR (second run), His-tagged CD38
T4 construct: bought protein; used for ELISA coating and as SPR analyte; not shown: His tag

Row | Binder | Kd [nM]
7 | B4 | 2.49
8 | B5 | 96.2
9 | B6 | 91
10 | B7 | 29.6
11 | B8 | 9.71

target: T5, His-tagged cynomolgus monkey CD38 (ACRO Biosystems, CD8-05223 [sic]) (cynomolgus monkey, UniProt Q5VAN0 43-301); test: SPR (second run), His-tagged CD38
T5 construct: bought protein; used for ELISA coating and as SPR analyte; not shown: His tag

Row | Binder | Kd [nM]
12 | B4 | 24.3
13 | B5 | 200
14 | B6 | 582
15 | B7 | 6030
16 | B8 | 33.8

target: T2, His-tagged mouse CD38 (ACRO Biosystems …); test: SPR (second run), His-tagged CD38

Row | Binder | Kd [nM]
17 | B4 | 1660
18 | B5 | 55
19 | B6 | 249
20 | B7 | 501
21 | B8 | 73

target: T4, His-tagged human CD38 (ACRO Biosystems …); test: ELISA, 1 ug/ml scFv-Fc, coated His-tagged CD38

Row | Binder | ELISA signal
22 | B1 | 1.76
23 | B2 | 1.48
24 | B3 | 1.55

target: T5, His-tagged cynomolgus monkey CD38 (ACRO …); test: ELISA, 1 ug/ml scFv-Fc, coated His-tagged CD38

Row | Binder | ELISA signal
25 | B1 | 1.6
26 | B2 | 1.34
27 | B3 | 1.67

target: T2, His-tagged mouse CD38 (ACRO Biosystems …); test: ELISA, 1 ug/ml scFv-Fc, coated His-tagged CD38

Row | Binder | ELISA signal
28 | B1 | 1.27
29 | B3 | 0.044

From patent publication US20220306762A1 (CRYSTAL BIOSCIENCE, published 2022)
